Results: the supplement of paper PMC10126150
± gives the standard deviation of the averaged measurements.

system: ATP; assay: switch fluorescence ratio, 500 uM ATP over buffer (Cy3 cluster intensity, sum of 5 cycles each) (fold (ratio)); higher = stronger signal-on switching upon ATP binding; sequences stand for … in TCGTCGGCAGCGTCAGATGTGTATAAGAGACAGTTTTTTTTTTTTTTTTTTTTTTTTT…TC; settings: aptamer strand: ATP DNA aptamer (quencher-CACCTGGGGGAGTATTGCGGAGGAAGG + anchor), 100 nM annealed; ATP concentration: 500 uM
In short: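 Switching-strand clusters labelled with Cy3 on a modified Illumina MiSeq flow-cell were annealed to 100 nM quencher-labelled ATP aptamer, imaged in selection buffer, and re-imaged after 15 min with 500 uM ATP at 22 °C. This was done over five cycles with NaOH stripping and re-annealing in between. The fluorescence ratio is summed target-cycle over summed buffer-cycle Cy3 intensity per cluster, averaged per switch-domain sequence, excluding clusters outside 100-1000 RFU.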
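Also: ATP exposure 15 min at 22 °C before imaging.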

GGGAGAAAGG and AGAGTGGTCA are within error of each other in switch fluorescence ratio: 1.011 ± 0.0067 for the first, 0.988 ± 0.018 for the second.

TTTATTATTG and CCAGACATGA are within error of each other in switch fluorescence ratio: 0.989 ± 0.035 for the first, 1.02 ± 0.012 for the second.

Compared with GAGGCTTGGG, AGTTTAAAAC is higher in switch fluorescence ratio: 0.99 ± 0.011 for the first, 1.02 ± 0.0077 for the second.

AATCGGGCGT and GGGAAGTTGG are within error of each other in switch fluorescence ratio: 0.982 ± 0.052 for the first, 0.986 ± 0.013 for the second.

Compared with TTGTATTT, GCGGTACTCT is higher in switch fluorescence ratio: 0.979 ± 0.022 for the first, 2.27 ± 0.41 for the second.

Going from TGTTAGGTGA to GGTAGGCGAA, the switch fluorescence ratio falls from 1.07 ± 0.011 to 0.9775 ± 0.0013.

TTTGTTGTGT and CGAGGACGGG are within error of each other in switch fluorescence ratio: 1.02 ± 0.025 for the first, 1 ± 0.029 for the second.

GGGATTAAGG and CACGGGGAAG are within error of each other in switch fluorescence ratio: 0.999 ± 0.021 for the first, 1.02 ± 0.047 for the second.

TTTGCAGCTT and AAGATGCGTA are within error of each other in switch fluorescence ratio: 1.49 ± 0.87 for the first, 0.978 ± 0.016 for the second.

CAGCGCGTCT and TCGGGAAATT are within error of each other in switch fluorescence ratio: 1.07 ± 0.06 for the first, 1.012 ± 0.0019 for the second.

GGGATTCCGT and TTGTATGAAG are within error of each other in switch fluorescence ratio: 1.05 ± 0.042 for the first, 0.951 ± 0.061 for the second.

Going from CTAGCATGAT to TTGCACTACT, the switch fluorescence ratio rises from 1.03 ± 0.061 to 1.5 ± 0.025.

TAATCCAGAA and GGCAGACTTC are within error of each other in switch fluorescence ratio: 1.01 ± 0.082 for the first, 1.02 ± 0.041 for the second.

CGATGTTATG and CTTGCTGCTG are within error of each other in switch fluorescence ratio: 1.02 ± 0.022 for the first, 0.972 ± 0.044 for the second.

GTGGGATTCG and AAGCGGAGAT are within error of each other in switch fluorescence ratio: 1.011 ± 0.0059 for the first, 1.02 ± 0.0065 for the second.

Compared with AAAAAGTTGG, AAAACGACCC is higher in switch fluorescence ratio: 1.005 ± 0.0099 for the first, 1.11 ± 0.07 for the second.

First: GGGGGATGGA
Second: TATGAGCTGG
The switch fluorescence ratio of the first is higher: 1.0016 ± 0.0002 for the first, 0.97 ± 0.015 for the second.

AAATTCGCTG and TACGGGCGGC are within error of each other in switch fluorescence ratio: 1.01 ± 0.095 for the first, 1.05 ± 0.016 for the second.

GGGATAGATA and GCAGGTGGTG are within error of each other in switch fluorescence ratio: 1.03 ± 0.022 for the first, 1.08 ± 0.062 for the second.

AGGGGGGCAG and GCCAGTTTGT are within error of each other in switch fluorescence ratio: 0.987 ± 0.032 for the first, 0.9807 ± 0.0052 for the second.

CCGCGGGTCG and GGGAAGGGGA are within error of each other in switch fluorescence ratio: 1.046 ± 0.0013 for the first, 1.04 ± 0.12 for the second.

GATGACAGTG and TTTATGAATT are within error of each other in switch fluorescence ratio: 0.969 ± 0.083 for the first, 1.03 ± 0.019 for the second.

TTAGTTGGAT and GCCCCGTTTG are within error of each other in switch fluorescence ratio: 1.04 ± 0.029 for the first, 1.0184 ± 0.00021 for the second.

First: ATTAGAGGTG
Second: GGTATTAGGA
The switch fluorescence ratio of the first is higher: 1.08 ± 0.03 for the first, 0.9669 ± 0.0076 for the second.

TATGTGAGCT and AGGTGTACTG are within error of each other in switch fluorescence ratio: 1.01 ± 0.024 for the first, 1.03 ± 0.058 for the second.

AAAATTCAGT and TTGGTTTGGG are within error of each other in switch fluorescence ratio: 0.9893 ± 0.0089 for the first, 0.98 ± 0.022 for the second.

CATCGAGGAC and TAGGATGAAG are within error of each other in switch fluorescence ratio: 1.06 ± 0.072 for the first, 1.03 ± 0.011 for the second.

CGCCTTGGGG and ACATCGGTTC are within error of each other in switch fluorescence ratio: 1 ± 0.05 for the first, 1.02 ± 0.029 for the second.

Going from CAGATGTGAC to GACAGAGGGA, the switch fluorescence ratio falls from 1.057 ± 0.0061 to 1.02 ± 0.031.

GCGTGATTGC and TACGCTGACG are within error of each other in switch fluorescence ratio: 1.06 ± 0.031 for the first, 1.13 ± 0.087 for the second.

GTGGCTTTGT and TTATAGGGGT are within error of each other in switch fluorescence ratio: 1.02 ± 0.029 for the first, 1.09 ± 0.057 for the second.

TATGACAGGG and AAAAGTGGGA are within error of each other in switch fluorescence ratio: 1.05 ± 0.024 for the first, 1.03 ± 0.031 for the second.

Compared with TTGAAAATGA, TGATTTTACC is higher in switch fluorescence ratio: 0.979 ± 0.016 for the first, 1.06 ± 0.015 for the second.

Compared with GTGAGTAGGG, CAGAACAGCT is higher in switch fluorescence ratio: 0.989 ± 0.018 for the first, 1.029 ± 0.0039 for the second.

GCGGGAGAGG and TGAAAAGGGA are within error of each other in switch fluorescence ratio: 1.02 ± 0.033 for the first, 1.01 ± 0.017 for the second.

TTTTATTAGA and GGTGAGTCGG are within error of each other in switch fluorescence ratio: 0.974 ± 0.065 for the first, 0.9925 ± 0.0029 for the second.

ATGCGAAGTG and TAATGAGAAC are within error of each other in switch fluorescence ratio: 1 ± 0.039 for the first, 0.974 ± 0.014 for the second.

CTAATGATGG and GGGGGTTGCA are within error of each other in switch fluorescence ratio: 1.01 ± 0.056 for the first, 0.965 ± 0.016 for the second.

Going from CCGGGAGAAA to GGTAGTCGGG, the switch fluorescence ratio falls from 1.28 ± 0.02 to 0.968 ± 0.014.

CATAAAAACT and TTGATAGTTG are within error of each other in switch fluorescence ratio: 1.06 ± 0.017 for the first, 1.01 ± 0.049 for the second.

GTGCCAAGGG and CAGAAGGGGA are within error of each other in switch fluorescence ratio: 1.16 ± 0.21 for the first, 1.09 ± 0.079 for the second.

GCATGACTTT and GGTTTAGGCT are within error of each other in switch fluorescence ratio: 1.06 ± 0.028 for the first, 1.08 ± 0.12 for the second.

First: CGGAGCCAGG
Second: ATACCAGGGG
The switch fluorescence ratio of the first is higher: 1.43 ± 0.02 for the first, 1.08 ± 0.19 for the second.

Compared with GCCAGAGATA, CACCTGTTGC is lower in switch fluorescence ratio: 1.0422 ± 0.00051 for the first, 1.02 ± 0.011 for the second.

TATATAAATT and CAGGGGGTGC are within error of each other in switch fluorescence ratio: 0.985 ± 0.021 for the first, 1.03 ± 0.072 for the second.

GTAAGGGATA and TGGGGCTGTG are within error of each other in switch fluorescence ratio: 0.988 ± 0.031 for the first, 0.991 ± 0.014 for the second.

AATGACTATG and CATTGAGTAG are within error of each other in switch fluorescence ratio: 0.976 ± 0.056 for the first, 1.01 ± 0.024 for the second.

Going from ATTTACATAT to TTTGTTGATT, the switch fluorescence ratio falls from 1.03 ± 0.015 to 0.973 ± 0.022.

First: ATAAGGATCT
Second: TTAGGTAGTG
The switch fluorescence ratio of the first is higher: 1.03 ± 0.016 for the first, 0.9667 ± 0.0047 for the second.

First: TTGGACGGGG
Second: GTTCACTGGG
The switch fluorescence ratio of the first is higher: 1.07 ± 0.035 for the first, 0.994 ± 0.022 for the second.

Compared with ACAAATTGTT, ATAGGTTCGT is lower in switch fluorescence ratio: 1.09 ± 0.069 for the first, 0.99 ± 0.012 for the second.

GGATAAAGAC and CCCCAGGGGG are within error of each other in switch fluorescence ratio: 1.37 ± 0.41 for the first, 3.38 ± 2.3 for the second.

Going from ATGGTGACGG to AAAACGTATA, the switch fluorescence ratio rises from 0.9765 ± 0.0034 to 1.07 ± 0.039.

Compared with TTTATCACCT, GAATGGGGA is lower in switch fluorescence ratio: 1.14 ± 0.021 for the first, 0.986 ± 0.021 for the second.

AGATTGTACG and ACATTGTTTT are within error of each other in switch fluorescence ratio: 1.006 ± 0.0017 for the first, 1.02 ± 0.021 for the second.

AAAACAGTAA and CCTAGCTG are the same in switch fluorescence ratio: 1.02 ± 0.032 for the first, 1.02 ± 0.056 for the second.

Compared with GCAATTGGGA, GTTAGTGATG is lower in switch fluorescence ratio: 1.05 ± 0.017 for the first, 0.9838 ± 0.003 for the second.

TGGAAGGTAT and CCAAGGGCTG are within error of each other in switch fluorescence ratio: 0.9795 ± 0.0087 for the first, 1.15 ± 0.19 for the second.

CTCCTGTTTT and CGTGAGTTTG are within error of each other in switch fluorescence ratio: 1.02 ± 0.023 for the first, 0.9888 ± 0.0082 for the second.

CATATTGGGA and GTCAGAATGT are within error of each other in switch fluorescence ratio: 0.996 ± 0.032 for the first, 1.02 ± 0.017 for the second.

TTGAATGCAT and GGGCTTAGTG are within error of each other in switch fluorescence ratio: 0.969 ± 0.13 for the first, 0.993 ± 0.0066 for the second.

GAAGTAGGTC and CACTAGGCGG are the same in switch fluorescence ratio: 1.02 ± 0.041 for the first, 1.0232 ± 0.00067 for the second.

AGAAGAGGGG and CGTGAAAATC are within error of each other in switch fluorescence ratio: 0.987 ± 0.044 for the first, 0.9987 ± 0.0075 for the second.

TTGGGGGGAC and TGTGTTGATG are within error of each other in switch fluorescence ratio: 1.03 ± 0.029 for the first, 1.01 ± 0.028 for the second.

GGGCTTTGGC and CTTTTAGTTG are within error of each other in switch fluorescence ratio: 1 ± 0.025 for the first, 0.993 ± 0.017 for the second.

TTGGGTGGAG and GTAATAAAAT are within error of each other in switch fluorescence ratio: 0.991 ± 0.023 for the first, 0.971 ± 0.034 for the second.

First: TTATCGGGTT
Second: AGTCCGGGAT
The switch fluorescence ratio of the first is lower: 0.973 ± 0.036 for the first, 1.07 ± 0.044 for the second.

GGAATTCCCG and TGTTTGTTCG are within error of each other in switch fluorescence ratio: 0.98 ± 0.054 for the first, 0.986 ± 0.021 for the second.

AATATGAG and GCGCACCACG are within error of each other in switch fluorescence ratio: 1.02 ± 0.018 for the first, 1.06 ± 0.029 for the second.

Compared with AGATTGTCTC, CATCTGATGC is higher in switch fluorescence ratio: 0.9573 ± 0.0063 for the first, 1.08 ± 0.015 for the second.

First: AGGAAGCGGG
Second: TAATATTCGA
The switch fluorescence ratio of the first is higher: 1.0224 ± 0.00031 for the first, 0.995 ± 0.018 for the second.

Compared with GAAGGCGGTT, TTTTCTCTTC is lower in switch fluorescence ratio: 1.029 ± 0.0037 for the first, 0.9808 ± 0.0054 for the second.

TATGTTACCA and AAGGGGTATC are within error of each other in switch fluorescence ratio: 0.977 ± 0.046 for the first, 1.02 ± 0.05 for the second.

Compared with GAGGGGGGAT, CCTCGTTTTT is higher in switch fluorescence ratio: 1.01 ± 0.033 for the first, 1.11 ± 0.053 for the second.

GTGGACGGGG and ATGGGACATT are within error of each other in switch fluorescence ratio: 0.983 ± 0.033 for the first, 1.03 ± 0.079 for the second.

TAGTGCCTGT and AAGGATTAGC are within error of each other in switch fluorescence ratio: 0.995 ± 0.028 for the first, 1.04 ± 0.11 for the second.

Compared with GTTTTATGGT, TTTCTACGCG is higher in switch fluorescence ratio: 0.968 ± 0.0075 for the first, 1.01 ± 0.034 for the second.

TTTGGGATTC and ATGGGGCACT are the same in switch fluorescence ratio: 0.979 ± 0.028 for the first, 0.9789 ± 0.0042 for the second.

For GATCCGAGTT, the switch fluorescence ratio was 0.99 ± 0.034.
